In publication PMC8602292, “Acyl carrier protein promotes MukBEF action in Escherichia coli chromosome organization-segregation” (Nature Communications, 2021):

Target: T1, MukB^KRK (K1114E, R1122E and K1125E) (Escherichia coli, UniProt P22523 1-1486, K1114E | R1122E | K1125E)
T1 construct: E. coli MukB, triple charge-reversed mutant; source: E. coli FL01 (mukB 3xFLAG C3013I), purified (TALON, HiTrap Heparin, Superdex 200); not shown: His tag, C-terminal, kept
T1 sequence (looked up): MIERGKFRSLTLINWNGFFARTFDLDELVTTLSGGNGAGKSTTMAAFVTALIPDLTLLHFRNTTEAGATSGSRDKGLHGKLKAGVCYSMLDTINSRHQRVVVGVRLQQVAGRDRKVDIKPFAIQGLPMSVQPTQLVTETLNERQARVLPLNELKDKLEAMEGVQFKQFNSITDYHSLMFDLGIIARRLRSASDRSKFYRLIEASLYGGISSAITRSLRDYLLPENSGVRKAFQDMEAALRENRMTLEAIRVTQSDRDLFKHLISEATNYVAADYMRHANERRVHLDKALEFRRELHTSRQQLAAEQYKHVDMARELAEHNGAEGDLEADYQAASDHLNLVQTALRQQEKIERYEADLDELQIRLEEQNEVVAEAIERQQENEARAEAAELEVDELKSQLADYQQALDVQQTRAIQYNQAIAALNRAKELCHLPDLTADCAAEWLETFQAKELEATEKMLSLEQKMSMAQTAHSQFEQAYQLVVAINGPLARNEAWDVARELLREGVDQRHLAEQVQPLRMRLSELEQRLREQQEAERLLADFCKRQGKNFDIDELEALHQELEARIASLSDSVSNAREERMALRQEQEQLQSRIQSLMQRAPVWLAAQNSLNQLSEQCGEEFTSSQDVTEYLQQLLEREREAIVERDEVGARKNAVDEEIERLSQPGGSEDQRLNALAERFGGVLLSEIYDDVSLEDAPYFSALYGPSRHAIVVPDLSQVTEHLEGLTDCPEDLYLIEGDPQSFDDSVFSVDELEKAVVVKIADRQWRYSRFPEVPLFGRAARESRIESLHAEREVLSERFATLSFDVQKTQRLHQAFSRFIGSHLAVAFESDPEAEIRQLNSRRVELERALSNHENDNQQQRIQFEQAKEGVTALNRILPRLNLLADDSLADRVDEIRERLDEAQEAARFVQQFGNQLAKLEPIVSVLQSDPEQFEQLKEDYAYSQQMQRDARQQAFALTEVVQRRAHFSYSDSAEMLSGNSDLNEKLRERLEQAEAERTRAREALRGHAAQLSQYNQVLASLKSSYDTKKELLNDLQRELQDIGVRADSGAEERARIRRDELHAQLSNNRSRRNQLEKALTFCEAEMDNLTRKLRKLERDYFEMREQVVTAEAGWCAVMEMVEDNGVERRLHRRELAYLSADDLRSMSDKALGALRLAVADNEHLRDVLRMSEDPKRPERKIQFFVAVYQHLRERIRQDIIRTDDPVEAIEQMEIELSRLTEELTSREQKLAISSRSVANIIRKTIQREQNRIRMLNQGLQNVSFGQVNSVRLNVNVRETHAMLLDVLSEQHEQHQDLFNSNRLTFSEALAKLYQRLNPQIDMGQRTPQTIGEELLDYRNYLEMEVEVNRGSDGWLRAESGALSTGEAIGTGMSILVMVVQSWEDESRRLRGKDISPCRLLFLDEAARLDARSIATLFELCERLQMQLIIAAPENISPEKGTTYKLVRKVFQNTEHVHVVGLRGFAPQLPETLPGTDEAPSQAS
Experiment: native gel or EMSA; BN-PAGE; MukB or MukB^HN (0-4.5 μM) with MukF (1.5 μM), MukE (3 μM) and AcpP as indicated or none; 1 mM DTT, 1 mM MgCl2, 30 min at 22 °C; 3-12% native Bis-Tris gels; AMPPNP in some samples
Details: both partners purified

B1: MukE (MukE-His) (natural protein, Escherichia coli, UniProt P22524 1-234, looked up)
chain: MSSTNIEQVMPVKLAQALANPLFPALDSALRSGRHIGLDELDNHAFLMDFQEYLEEFYARYNVELIRAPEGFFYLRPRSTTLIPRSVLSELDMMVGKILCYLYLSPERLANEGIFTQQELYDELLTLADEAKLLKLVNNRSTGSDVDRQKLQEKVRSSLNRLRRLGMVWFMGHDSSKFRITESVFRFGADVRAGDDPREAQRRLIRDGEAMPIENHLQLNDETEENQPDSGEEE
notes: MukE, the KITE protein of Escherichia coli MukBEF; The end of the tag is read from the printed name 'MukE-His'; also called KITE protein MukE; source: E. coli C3013I (NEB), pET vector, purified (TALON, HiTrap DEAE FF, Superdex 200)
B1: binds.

B2: MukF (His-MukF) (natural protein, Escherichia coli, UniProt P60293 1-440, looked up)
chain: MSEFSQTVPELVAWARKNDFSISLPVDRLSFLLAVATLNGERLDGEMSEGELVDAFRHVSDAFEQTSETIGVRANNAINDMVRQRLLNRFTSEQAEGNAIYRLTPLGIGITDYYIRQREFSTLRLSMQLSIVAGELKRAADAAEEGGDEFHWHRNVYAPLKYSVAEIFDSIDLTQRLMDEQQQQVKDDIAQLLNKDWRAAISSCELLLSETSGTLRELQDTLEAAGDKLQANLLRIQDATMTHDDLHFVDRLVFDLQSKLDRIISWGQQSIDLWIGYDRHVHKFIRTAIDMDKNRVFAQRLRQSVQTYFDEPWALTYANADRLLDMRDEEMALRDEEVTGELPEDLEYEEFNEIREQLAAIIEEQLAVYKTRQVPLDLGLVVREYLSQYPRARHFDVARIVIDQAVRLGVAQADFTGLPAKWQPINDYGAKVQAHVIDKY
notes: MukF, the kleisin of Escherichia coli MukBEF; The end of the tag is read from the printed name 'His-MukF'; also called kleisin MukF; source: E. coli C3013I (NEB), pET vector, purified (TALON, HiTrap DEAE FF, Superdex 200)
B2: binds.
